According to US20250250357A1 (NANJING ZAIMING PHARMACEUTICAL, published 2025):

T1: human MSLN-R1-his protein (human, UniProt Q13421 296-390)
T1 construct: Region 1 of human mesothelin, made in HEK293E cells, His-tagged; also called human MSLN-R1 protein; hMSLN-R1-his; not shown: His tag
T1 chain: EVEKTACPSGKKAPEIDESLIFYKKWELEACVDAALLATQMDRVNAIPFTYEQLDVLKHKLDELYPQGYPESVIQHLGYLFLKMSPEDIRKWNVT


Assays:
[1] = biological target: T1, human MSLN-R1-his protein; assay: ELISA on coated MSLN-R1; antibody 1 nM
[2] = biological target: T2, human MSLN-R2-his protein (human, UniProt Q13421 391-486); assay: ELISA on coated MSLN-R2; antibody 1 nM
T2 construct: Region 2 of human mesothelin, made in HEK293E cells, His-tagged; also called human MSLN-R2 protein; hMSLN-R2-his; not shown: His tag
T2 sequence (Q13421 other isoform, or with tags, fused parts or gaps): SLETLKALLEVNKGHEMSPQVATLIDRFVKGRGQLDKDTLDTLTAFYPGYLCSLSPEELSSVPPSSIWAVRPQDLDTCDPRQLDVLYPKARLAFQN

[3] = biological target: T3, human MSLN-R3-his protein (human, UniProt Q13421 487-598); assay: ELISA on coated MSLN-R3; antibody 1 nM
T3 construct: Region 3 of human mesothelin, made in HEK293E cells, His-tagged; also called human MSLN-R3 protein; hMSLN-R3-his; not shown: His tag
T3 sequence (Q13421 495-606): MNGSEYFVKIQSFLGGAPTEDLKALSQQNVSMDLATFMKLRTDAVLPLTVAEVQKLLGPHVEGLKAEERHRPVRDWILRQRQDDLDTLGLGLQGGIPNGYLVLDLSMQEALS

[4] = biological target: T1, human MSLN-R1-his protein; assay: ELISA on coated MSLN-R1; antibody 10 nM
Description: (§1) The plate was sealed with a plastic film and incubated at 4° C. overnight. The next day, the plate was washed twice with PBST, and a blocking buffer [PBS+2% (w/w) BSA] was added for blocking at room temperature for 2 h. The blocking buffer was discarded, and a chimeric antibody or negative control antibody serially diluted from 100 nM was added at 50 μL/well. After incubation at 37° C. for 2 h, the plate was washed 3 times with PBST. […] After incubation at 37° C. for 2 h, the plate was washed 5 times with PBST. A TMB substrate was added at 50 μL/well for incubation at room temperature for 5-10 min, and then a stop solution (1.0 N HCl) was added at 50 μL/well.

[5] = biological target: T2, human MSLN-R2-his protein; assay: ELISA on coated MSLN-R2; antibody 10 nM
Description: as §1

[6] = biological target: T3, human MSLN-R3-his protein; assay: ELISA on coated MSLN-R3; antibody 10 nM
[7] = biological target: T1, human MSLN-R1-his protein; assay: ELISA on coated MSLN-R1; antibody 0.1 nM
[8] = biological target: T1, human MSLN-R1-his protein; assay: ELISA on coated MSLN-R1; antibody 100 nM
Description: as §1

[9] = biological target: T2, human MSLN-R2-his protein; assay: ELISA on coated MSLN-R2; antibody 0.1 nM
Description: as §1

[10] = biological target: T2, human MSLN-R2-his protein; assay: ELISA on coated MSLN-R2; antibody 100 nM
Description: as §1

[11] = biological target: T3, human MSLN-R3-his protein; assay: ELISA on coated MSLN-R3; antibody 0.1 nM
[12] = biological target: T3, human MSLN-R3-his protein; assay: ELISA on coated MSLN-R3; antibody 100 nM
Description: as §1

[13] = biological target: T1, human MSLN-R1-his protein; assay: ELISA on coated MSLN-R1; antibody 0.01 nM
[14] = biological target: T2, human MSLN-R2-his protein; assay: ELISA on coated MSLN-R2; antibody 0.01 nM
Description: as §1

[15] = biological target: T3, human MSLN-R3-his protein; assay: ELISA on coated MSLN-R3; antibody 0.01 nM
[16] = biological target: T1, human MSLN-R1-his protein; assay: ELISA on coated MSLN-R1; antibody 0.001 nM
[17] = biological target: T2, human MSLN-R2-his protein; assay: ELISA on coated MSLN-R2; antibody 0.001 nM
[18] = biological target: T3, human MSLN-R3-his protein; assay: ELISA on coated MSLN-R3; antibody 0.001 nM
[19] = biological target: T1, human MSLN-R1-his protein; assay: ELISA on coated MSLN-R1; antibody 0.0001 nM
Description: as §1

[20] = biological target: T2, human MSLN-R2-his protein; assay: ELISA on coated MSLN-R2; antibody 0.0001 nM
Description: as §1

[21] = biological target: T3, human MSLN-R3-his protein; assay: ELISA on coated MSLN-R3; antibody 0.0001 nM
[22] = biological target: T1, human MSLN-R1-his protein; assay: ELISA on coated MSLN-R1; no antibody (blank)
[23] = biological target: T2, human MSLN-R2-his protein; assay: ELISA on coated MSLN-R2; no antibody (blank)
Description: as §1

[24] = biological target: T3, human MSLN-R3-his protein; assay: ELISA on coated MSLN-R3; no antibody (blank)

| Binder | OD450 [1] | OD450 [2] | OD450 [3] | OD450 [4] | OD450 [5] | OD450 [6] | OD450 [7] | OD450 [8] | OD450 [9] | OD450 [10] | OD450 [11] | OD450 [12] | OD450 [13] | OD450 [14] | OD450 [15] | OD450 [16] | OD450 [17] | OD450 [18] | OD450 [19] | OD450 [20] | also measured |
| --- | --- | --- | --- | --- | --- | --- | --- | --- | --- | --- | --- | --- | --- | --- | --- | --- | --- | --- | --- | --- | --- |
| S009-F8-32.3 (antibody, human IgG1, kappa, V domains shown) VH: QVQLKESGPGLVAPSQSLSITCTVSGFSLSSYAISWVRQPPGKGLEWLGVIWTGGGTNYNSALKSRLSISKDNSKSQVFLKMNSLQTDDTARFYCARNNYGRLDYAMDYWGQGTSVTVSS VL: DVVMTQTPLSLPVSLGDQASISCRSSQSLVHGNGNTYLHWYLQKPGQSPKLLIYKVSNRFSGVPDRFSGSGSGTDFTLKISRVETEDLGVYFCSQSTHVPFTFGSGTKLEIKR | 2.6 OD450 | 0.04 OD450 | 0.04 OD450 | 2.79 OD450 | 0.05 OD450 | 0.04 OD450 | 1.64 OD450 | 2.81 OD450 | 0.04 OD450 | 0.07 OD450 | 0.04 OD450 | 0.07 OD450 | 0.42 OD450 | 0.04 OD450 | 0.04 OD450 | 0.11 OD450 | 0.04 OD450 | 0.04 OD450 | 0.06 OD450 | 0.04 OD450 | OD450 [21]: 0.04 OD450; OD450 [22]: 0.04 OD450; OD450 [23]: 0.04 OD450; OD450 [24]: 0.04 OD450 |
| S009-F8-27.1 (antibody, human IgG1, kappa, V domains shown) VH: EVQLVESGGGLVKPGGSLKLSCAASGFTFSSYAMSWVRQTPEKRLEWVATISDGGNYTYYPDNVKGRFTISRDNAKNNLYLQMSHLKSEDTAMYYCAGDRGYPYAMDSWGQGTSVTVSS VL: NIMMTQSPSSLAVSAGEKVTMSCKSSQSVLYSSNQKNYLAWYQQKPGQSPKLLIYWASTRESGVPDRFTGSGSGTDFTLTISNVHAEDLAVYYCHQYLSSLTFGAGTKLELKR | 0.05 OD450 | 0.05 OD450 | 0.04 OD450 | 0.08 OD450 | 0.05 OD450 | 0.05 OD450 | 0.05 OD450 | 0.35 OD450 | 0.04 OD450 | 0.05 OD450 | 0.07 OD450 | 0.06 OD450 | 0.04 OD450 | 0.04 OD450 | 0.04 OD450 | 0.04 OD450 | 0.05 OD450 | 0.05 OD450 | 0.04 OD450 | 0.04 OD450 | OD450 [21]: 0.04 OD450; OD450 [22]: 0.05 OD450; OD450 [23]: 0.05 OD450; OD450 [24]: 0.05 OD450 |

Second part, led by results:

| OD450 [1] | OD450 [2] | OD450 [3] | OD450 [4] | OD450 [5] | OD450 [6] | OD450 [7] | OD450 [8] | OD450 [9] | OD450 [10] | OD450 [11] | OD450 [12] | OD450 [13] | OD450 [14] | OD450 [15] | OD450 [16] | OD450 [17] | OD450 [18] | OD450 [19] | OD450 [20] | Binder | also measured |
| --- | --- | --- | --- | --- | --- | --- | --- | --- | --- | --- | --- | --- | --- | --- | --- | --- | --- | --- | --- | --- | --- |
| 1.63 OD450 | 0.04 OD450 | 0.04 OD450 | 2.24 OD450 | 0.04 OD450 | 0.05 OD450 | 0.64 OD450 | 2.34 OD450 | 0.04 OD450 | 0.05 OD450 | 0.04 OD450 | 0.06 OD450 | 0.13 OD450 | 0.04 OD450 | 0.04 OD450 | 0.07 OD450 | 0.04 OD450 | 0.04 OD450 | 0.05 OD450 | 0.04 OD450 | S009-F8-24.14 (antibody, human IgG1, kappa, V domains shown) VH: EFQLQQSGPELVKPGASVKISCKASGYSFTDYNMNWVKLSNGKSLEWIGVIIPNYGTSSYNQKFKGKATLTVDQSSSTAYMQLNSLTSEDSAVYYCARWDNYYGSSLDYWGQGTTLTVSS VL: DIVMTQSQKFMSTTVGDRVSITCKASQNVGTAVAWYQQKPGQSPKLLIYSASNRYTGVPDRFTGSGSGTDFILTISNMQSEDLADYFCQQYSSYPLTFGAGTKLELKR | OD450 [21]: 0.04 OD450; OD450 [22]: 0.04 OD450; OD450 [23]: 0.04 OD450; OD450 [24]: 0.04 OD450 |
| 2.05 OD450 | 0.04 OD450 | 0.05 OD450 | 2.17 OD450 | 0.05 OD450 | 0.07 OD450 | 1.95 OD450 | 2.12 OD450 | 0.05 OD450 | 0.08 OD450 | 0.04 OD450 | 0.13 OD450 | 0.8 OD450 | 0.04 OD450 | 0.04 OD450 | 0.19 OD450 | 0.04 OD450 | 0.04 OD450 | 0.08 OD450 | 0.05 OD450 | S009-F8-31.22 (antibody, human IgG1, kappa, V domains shown) VH: EVQLVESGGDLVKPGGSLKLSCAASGFTFSTYGMSWVRQTPDKRLEWVATISSGGSYTYYPDSLKGRFTISRDNAKNTLYLQMSSLKSEDTAMYYCARHEGYYYGKDYWGQGTTLTVSS VL: DIVLTQSPATLSVTPGDSVSLSCRASHSISNNLHWYQQKSHESPRLLIKYASQSISGIPSKFSGSGSGTDFTLSINSVETEDFGMYFCQQTNSWPLTFGAGTKLELKR | OD450 [21]: 0.04 OD450; OD450 [22]: 0.05 OD450; OD450 [23]: 0.05 OD450; OD450 [24]: 0.05 OD450 |
| 0.04 OD450 | 0.04 OD450 | 0.04 OD450 | 0.04 OD450 | 0.04 OD450 | 0.05 OD450 | 0.04 OD450 | 0.05 OD450 | 0.04 OD450 | 0.05 OD450 | 0.04 OD450 | 0.07 OD450 | 0.04 OD450 | 0.04 OD450 | 0.07 OD450 | 0.05 OD450 | 0.04 OD450 | 0.04 OD450 | 0.04 OD450 | 0.04 OD450 | S009-F8-28.23 (antibody, human IgG1, kappa, V domains shown) VH: EVQLVESGGDLVKPGGSLKLSCAASGFTFSSYAMSWVRQTPEKRLEWVATISDGGSYTYYPDNVEGRFTISRDNAKNNLYLQMSHLKSEDTAMYYCAGDRGYSYALDYWGQGTSVTVSS VL: NIMMTQSPSSLAVSAGEKVTMSCKSSQSVLYSSNQKNYLAWYQQKPGQSPKLLIYWASTRESGVPDRFTGSGSGTDFTLTISSVQAEDLAVYYCHQYLSSLTFGAGTKLELKR | OD450 [21]: 0.04 OD450; OD450 [22]: 0.04 OD450; OD450 [23]: 0.04 OD450; OD450 [24]: 0.04 OD450 |
| 0.04 OD450 | 0.04 OD450 | 0.06 OD450 | 0.04 OD450 | 0.04 OD450 | 0.06 OD450 | 0.04 OD450 | 0.05 OD450 | 0.04 OD450 | 0.06 OD450 | 0.04 OD450 | 0.1 OD450 | 0.04 OD450 | 0.04 OD450 | 0.04 OD450 | 0.04 OD450 | 0.04 OD450 | 0.15 OD450 | 0.04 OD450 | 0.05 OD450 | S009-F8-29.1 (antibody, human IgG1, kappa, V domains shown) VH: QVQLQQSGAELARPGASVKMSCKASGYTFISYTMHWVKQRPGQGLEWIGYINPSSGYTKYNQKFKDKATLTADKSSSTAYMQLNSLTSEDSAVYYCARYYSNPDYYAMDYWGQGTSVTVSS VL: QIVLTQSPAIMSASPGEKVTITCSASSSVSYMHWFQQKPGTSPKLWIYSTSNLASGVPARFSGSGSGTSYSLTISRMEAEDAATYYCQQRSSYPLTFGGGTKLELKR | OD450 [21]: 0.06 OD450; OD450 [22]: 0.04 OD450; OD450 [23]: 0.04 OD450; OD450 [24]: 0.04 OD450 |
